Results from US20240254231A1 (published 2024).
Residue numbers refer to the chain shown, from its start. One block for each binder: values may come before it.

Columns and labels:
PMX-150 = assay: flow cytometry; apparent Kd of cell binding
PMX-147 = assay: flow cytometry; apparent Kd of cell binding
PMX-145 = assay: flow cytometry; apparent Kd of cell binding
PMX-149 = assay: flow cytometry; apparent Kd of cell binding
canine PD-1 ECD-mFc = target: T1, canine PD-1 ECD-mFc; assay: SPR; avid
T1 chain: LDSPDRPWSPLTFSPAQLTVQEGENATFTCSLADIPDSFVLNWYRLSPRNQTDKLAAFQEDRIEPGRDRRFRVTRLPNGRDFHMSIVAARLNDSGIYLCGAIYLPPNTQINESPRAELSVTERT

[1] = target: T2, canine PD-1, full-length, membrane-embedded; assay: flow cytometry; apparent Kd of cell binding
T2 chain: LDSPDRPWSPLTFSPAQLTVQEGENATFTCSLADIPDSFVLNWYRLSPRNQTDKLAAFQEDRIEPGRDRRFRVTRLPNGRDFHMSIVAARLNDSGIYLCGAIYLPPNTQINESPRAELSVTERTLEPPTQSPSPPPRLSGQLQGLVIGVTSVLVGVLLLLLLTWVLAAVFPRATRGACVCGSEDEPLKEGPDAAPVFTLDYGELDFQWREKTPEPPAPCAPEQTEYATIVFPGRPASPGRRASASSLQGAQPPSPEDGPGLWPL

canine PD-1 ECD-6His = target: T3, canine PD-1 ECD-6His; assay: SPR; monovalent binding
T3 chain: T1 chain

B1: PD-1 (receptor)
chain: T2 chain
- Kd (PMX-150): 6.83 nM
- Kd (PMX-147): 2.65 nM
- Kd (PMX-145): 5.75 nM
- Kd (PMX-149): 8.23 nM

B3: PMX125 (antibody, V domains shown)
VH: EVQLVESGGDLVKPGGSLRLSCVASGFSFSRYHMSWVRQAPGKGLQWVAYIISGGITTSYADAVKGRFTISRDNAKNTLFLQMNSLRAEDTAVYYCATYGSYFFDKWGQGTLVTVSS
VL: DIVMTQTPLSLSVSPGETASISCKASQSLLHSDGKSYLNWFRQKPGQSPQRLIYRVSNRDPGVPDRFSGSGSGTDFTLRISRVEADDTGLYYCGQVIQDPTFGAGTKVELK
- Kd (canine PD-1 ECD-mFc): 0.0348 nM
- Kd [1]: 1.07 nM
- Kd (canine PD-1 ECD-6His): 7.7 nM

B4: PMX127 (antibody, V domains shown)
VH: B3 VH with I52V, T57S, K106T
VL: B3 VL with S22F
- Kd (canine PD-1 ECD-mFc): 0.0024 nM
- Kd [1]: 0.86 nM
- Kd (canine PD-1 ECD-6His): 2.2 nM

B6: PMX151 (antibody, V domains shown)
VH: EVQLVESGGDLVKSGGSLRLSCVASGFTFNTYSMNWVRQAPGKGLQWVARIKSSGSSTTYADAVKGRFTVSRDIAKNTLFLQMNSLRAEDTALYYCASEPGARYEIYFVESFFDYWGQGTLVTVSS
VL: SYVLTQLPSKSVTLKQPAHITCGGDNIGSKSVHWYQQKLGQAPVLIIYYDSSRPTGIPERFSGANSGNTATLTISGALAEDEADYYCQVWDSSAQAWIFGEGTQLTVL
- Kd (canine PD-1 ECD-mFc): 0.0322 nM
- Kd [1]: 2.97 nM
- Kd (canine PD-1 ECD-6His): 1.7 nM

The next lines start with the values.

- Kd (canine PD-1 ECD-mFc): 0.0297 nM
- Kd [1]: 1.05 nM
- Kd (canine PD-1 ECD-6His): 6.8 nM
B2: PMX126 (antibody, V domains shown)
VH: EVQLVESGGDLVKPAGSLRLSCLASGFTFSSYSMSWVRQAPEKGLQSVAGINSDGDRTYYTDAVKGRFTISRDNAKSTVYLQMNSLRAEDTAMYYCVRGFSSFNAFGYWGQGTLVTVSS
VL: DIVMTQTPLSLSVSPGETASISCKASQSLLHSDGNTYLSWFRQKPGQSPHRLIYAVSHRHPGVPDRFSGSGSGTDFTLRISRVEADDAGLYYCGQVIQDPWTFGAGTKVELK

- Kd (canine PD-1 ECD-mFc): 0.0318 nM
- Kd (canine PD-1 ECD-6His): 24.2 nM
B5: PMX152 (antibody, V domains shown)
VH: EVQLVESGGDLVKPGGSLRLSCVASGFTFSRYYMNWVRQAPGKGPQWVAYINNAGSDRNYVDAVKGRFTISRDNAKNTLYLQMNSLRAEDTAVYYCASEIRGVVVVGHLDYWGQGTLVTVSS
VL: B6 VL with K15N, S52I, N65T, Q95K, I98V
